In patent US20210179715A1 one finds Kd, koff and kon data, which are given here for six molecules.

Values joined by “and” are separate entries in the source; they are usually repeats but may differ in a detail not shown here. Equal values may be shown once. Read-outs that look alike come from different tables or passages of the source.

Experiment [1] has as its target T1, 27mer cyno CD3 polypeptide conjugated to biotin (cynomolgus monkey).
T1 sequence (peptide, conjugated to biotin (site not stated)): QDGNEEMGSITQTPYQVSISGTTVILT
The experiment in a line: BIAcore T200 SPR; biotin 27mer CD3 peptide on SA chip; TDB flowed; 37 C. (In general: Surface plasmon resonance follows binding to a sensor surface in real time, without labels.)

Experiment [2] shares this target. Described as above. This is another data set of the same source.
The target in experiment [3] is cynomolgus LY6G6D-Fc (cynomolgus monkey). The experiment in a line: BIAcore SPR; LY6G6D-Fc on chip; TDB flowed; 37 C.
The target is the same in experiment [4]. As to the kind of experiment: BIAcore SPR; LY6G6D-Fc on chip; TDB flowed; 37 C. This is another data set of the same source.
Experiment [5] shares this target. The experiment in a line: BIAcore SPR; two-cell TDB.
In experiment [6] the target is T2, human LY6G6D-Fc (human) (UniProt O95868).
T2 sequence: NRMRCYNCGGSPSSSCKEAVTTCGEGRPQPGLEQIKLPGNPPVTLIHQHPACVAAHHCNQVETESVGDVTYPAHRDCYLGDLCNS
As to the kind of experiment: BIAcore SPR; LY6G6D-Fc on chip; TDB flowed; 37 C.

In experiment [7] the target is T2, human LY6G6D-Fc (human). The experiment in a line: BIAcore SPR; LY6G6D-Fc on chip; TDB flowed; 37 C. The source holds these as a separate data set.

B1: LY6G6D TDB assembled using a one-cell system comprising the anti-LY6G6D 20A12.QNTv12 arm (one-cell) and the anti-CD3 38E4v1 (WT) arm (bispecific antibody, V domains shown)
VH 1: EVQLLESGGGLVQPGGSLRLSCAASGFDFVNNAMIWVREAPGKGLEWVSALSFADNTAYYATWASGRFTISRDSSKTTVYLQMNSLRAEDTAVYYCMRGDLWGPGTLVTVSS
VL 1: DIQMTQSPSTLSASVGDRVTITCQASESITRYLNWYQKKPGKAPKLLIYDASKLPSGVPSRFSGSGSGTEFTLTISSLQPDDFATYYCQSTSFRGRSYQNTFGGGTKVEIK
VH 2: EVQLVQSGAEVKKPGASVKVSCKASGFTFTSYYIHWVRKAPGQGLEWIGWIYPENDNTKYNEKFKDRVTITADTSTSTAYLELSSLRSEDTAVYYCARDGYSRYYFDYWGQGTLVTVSS
VL 2: DIVMTQSPDSLAVSLGERATINCKSSQSLLNSRTRKNYLAWYQEKPGQSPKLLIYWTSTRKSGVPDRFSGSGSGTDFTLTISSLQAEDVAVYYCKQSFILRTFGQGTKVEIK
On to B1, for which, in experiment [1], the Kd (usually the concentration at which binding is half-saturated) was 15.4 nM and 16.5 nM; the off-rate (koff) – broadly, the rate constant with which the complex falls apart – is 0.0399 s⁻¹ and 0.0437 s⁻¹; the on-rate (kon) (usually the rate constant with which the complex forms) is 2.6e+06 M⁻¹ s⁻¹ and 2.65e+06 M⁻¹ s⁻¹. This molecule returned a Kd in experiment [2] of 15.9 nM.

B2: LY6G6D TDB comprising the anti-LY6G6D 20A12.QNTv12 arm (two-cell) and the anti-CD3 38E4v1 arm (bispecific antibody, V domains shown)
VH 1: EVQLLESGGGLVQPGGSLRLSCAASGFDFVNNAMIWVRQAPGKGLEWVSALSFADNTAYYATWASGRFTISRDSSKTTVYLQMNSLRAEDTAVYYCMRGDLWGPGTLVTVSS
VL 1: DIQMTQSPSTLSASVGDRVTITCQASESITRYLNWYQQKPGKAPKLLIYDASKLPSGVPSRFSGSGSGTEFTLTISSLQPDDFATYYCQSTSFRGRSYQNTFGGGTKVEIK
VH 2: EVQLVQSGAEVKKPGASVKVSCKASGFTFTSYYIHWVRQAPGQGLEWIGWIYPENDNTKYNEKFKDRVTITADTSTSTAYLELSSLRSEDTAVYYCARDGYSRYYFDYWGQGTLVTVSS
VL 2: DIVMTQSPDSLAVSLGERATINCKSSQSLLNSRTRKNYLAWYQQKPGQSPKLLIYWTSTRKSGVPDRFSGSGSGTDFTLTISSLQAEDVAVYYCKQSFILRTFGQGTKVEIK
As for B2, the equilibrium dissociation constant (Kd) is 13 nM and 16.5 nM in experiment [1]; 1.92 nM in experiment [3]; 2.29 nM in experiment [4]; 14.8 nM in experiment [2]; 2.29 nM in experiment [5]. For the same molecule, the koff in experiment [1] is 0.0337 s⁻¹ and 0.0364 s⁻¹; in experiment [3], 0.000444 s⁻¹; in experiment [4], 0.00038 s⁻¹. Moreover, the kon in experiment [1] was 2.6e+06 M⁻¹ s⁻¹ and 2.21e+06 M⁻¹ s⁻¹; in experiment [3], 231000 M⁻¹ s⁻¹; in experiment [4], 166000 M⁻¹ s⁻¹.

B3: LY6G6D TDB comprising the anti-LY6G6D 20A12.QNTv12 arm (two-cell) and the anti-CD3 40G5c arm (bispecific antibody, part only; not given: anti-CD3 arm and constant regions, V domains shown, part only)
VH: EVQLLESGGGLVQPGGSLRLSCAASGFDFVNNAMIWVRQAPGKGLEWVSALSFADNTAYYATWASGRFTISRDSSKTTVYLQMNSLRAEDTAVYYCMRGDLWGPGTLVTVSS
VL: DIQMTQSPSTLSASVGDRVTITCQASESITRYLNWYQQKPGKAPKLLIYDASKLPSGVPSRFSGSGSGTEFTLTISSLQPDDFATYYCQSTSFRGRSYQNTFGGGTKVEIK
In the experiment with human LY6G6D-Fc (human) [6], B3 had an equilibrium dissociation constant (Kd) of 5.62 nM, a koff of 0.000453 s⁻¹ and a kon of 80600 M⁻¹ s⁻¹. The molecule also gave a koff in the experiment with human LY6G6D-Fc (human) [7] of 0.000456 s⁻¹. In experiment [4], this molecule displayed a Kd of 4.91 nM, a dissociation rate constant (koff) of 0.000413 s⁻¹ and an on-rate constant (kon) of 84300 M⁻¹ s⁻¹.

B4: LY6G6D TDB comprising the anti-LY6G6D 1G4 arm and the anti-CD3 38E4.v1 arm (bispecific antibody, V domains shown)
VH 1: EVQLVQSGAEVKKPGASVKVSCKASGYTFTTYVMHWVRQAPGQGLEWMGYINPYNDGTKYNEKFKGRVTMTRDTSISTAYMELSRLRSDDTAVYYCGRRNFDYWGQGTLVTVSS
VL 1: DIVMTQSPDSLAVSLGERATINCKSSQSLLLSGNQENYLAWHQQKPGQPPKTLITWASTRISGVPDRFSGSGSGTDFTLTISSLQAEDVAVYYCQQSYSAPYTFGGGTKVEIK
VH 2: EVQLVQSGAEVKKPGASVKVSCKASGFTFTSYYIHWVRQAPGQGLEWIGWIYPENDNTKYNEKFKDRVTITADTSTSTAYLELSSLRSEDTAVYYCARDGYSRYYFDYWGQGTLVTVSS
VL 2: DIVMTQSPDSLAVSLGERATINCKSSQSLLNSRTRKNYLAWYQQKPGQSPKLLIYWTSTRKSGVPDRFSGSGSGTDFTLTISSLQAEDVAVYYCKQSFILRTFGQGTKVEIK
Take B4: in experiment [4], the Kd came out at 13.1 nM, the koff was determined as 0.00936 s⁻¹ and the kon was 714000 M⁻¹ s⁻¹.

B5: LY6G6D TDB assembled using a one-cell system comprising the anti-LY6G6D 20A12.QNTv12 arm (one-cell) and the anti-CD3 38E4v1 MD4 arm (bispecific antibody, V domains shown)
VH 1: EVQLLESGGGLVQPGGSLRLSCAASGFDFVNNAMIWVREAPGKGLEWVSALSFADNTAYYATWASGRFTISRDSSKTTVYLQMNSLRAEDTAVYYCMRGDLWGPGTLVTVSS
VL 1: DIQMTQSPSTLSASVGDRVTITCQASESITRYLNWYQKKPGKAPKLLIYDASKLPSGVPSRFSGSGSGTEFTLTISSLQPDDFATYYCQSTSFRGRSYQNTFGGGTKVEIK
VH 2: EVQLVQSGAEVKKPGASVKVSCKASGFTFTSYYIHWVRKAPGQGLEWIGWIYPENDNTKYNEKFKDRVTITADTSTSTAYLELSSLRSEDTAVYYCARDGYSRYYFDYWGQGTLVTVSS
VL 2: DIVMTQSPDSLAVSLGERATINCKSSQSLLNSRTRKNYLAWYQEKPGQPPKLLIYWASTRKSGVPDRFSGSGSGTDFTLTISSLQAEDVAVYYCKQSFILRTFGQGTKVEIK
As for B5, in experiment [1], the equilibrium dissociation constant (Kd) is 14 nM and 14.7 nM; the koff was 0.0433 s⁻¹ and 0.0426 s⁻¹; the kon is 3.09e+06 M⁻¹ s⁻¹ and 2.89e+06 M⁻¹ s⁻¹. In experiment [3], this molecule registered a Kd of 2.62 nM, a koff of 0.000574 s⁻¹ and a kon of 219000 M⁻¹ s⁻¹. The same molecule gave a Kd in experiment [2] of 14.4 nM.

B6: LY6G6D TDB assembled using a one-cell system comprising the anti-LY6G6D 20A12.QNTv12 arm (one-cell) and the anti-CD3 38E4v1 MD1 arm (bispecific antibody, V domains shown)
VH 1: EVQLLESGGGLVQPGGSLRLSCAASGFDFVNNAMIWVREAPGKGLEWVSALSFADNTAYYATWASGRFTISRDSSKTTVYLQMNSLRAEDTAVYYCMRGDLWGPGTLVTVSS
VL 1: DIQMTQSPSTLSASVGDRVTITCQASESITRYLNWYQKKPGKAPKLLIYDASKLPSGVPSRFSGSGSGTEFTLTISSLQPDDFATYYCQSTSFRGRSYQNTFGGGTKVEIK
VH 2: EVQLVQSGAEVKKPGASVKVSCKASGFTFTSYYIHWVRKAPGQGLEWIGWIYPENDNTKYNEKFKDRVTITADTSTSTAYLELSSLRSEDTAVYYCARDGYSRYYFDYWGQGTLVTVSS
VL 2: DIVMTQSPDSLAVSLGERATINCKSSQSLLNSRTRKNYLAWYQEKPGQPPKLLIYWASTRESGVPDRFSGSGSGTDFTLTISSLQAEDVAVYYCTQSFILRTFGQGTKVEIK
Take B6: in experiment [1], the Kd was 26.6 nM and 25.6 nM; the koff is 0.0383 s⁻¹ and 0.0376 s⁻¹; the kon was 1.44e+06 M⁻¹ s⁻¹ and 1.47e+06 M⁻¹ s⁻¹. In experiment [3], the Kd was 3.63 nM, the koff amounted to 0.000512 s⁻¹ and the kon amounted to 141000 M⁻¹ s⁻¹. Also, the Kd in experiment [2] was 26.1 nM.
